Experimental data reported in patent US20240076406A1, “SINGLE DOMAIN ANTIBODIES TARGETING CA-IX AS WELL AS COMPOSITIONS COMPRISING SAME” (National Research Council of Canada, priority 2021, published 2024).
Where two headings read alike, the source gives them in different places. One block for each molecule: values may come before it.

How the values were obtained:
dimeric CA-IX = target: T1, dimeric CA-IX (Homo sapiens, UniProt Q16790); test: SPR binding affinity, VHH format, dimeric CA-IX; details: SPR data (FIG. 3A); monomer or dimer not specified
T1 construct: to the dimeric extracellular domain (ECD) of hCA-IX
Experimental: FIG. 3A is a graph showing the binding kinetics determined by surface plasmon resonance (SPR) for 3 CA-IX single domain antibodies (sdCA9-1, -2, -3-VHH) to the dimeric extracellular domain (ECD) of hCA-IX.
In vitro binding affinity/SPR. To evaluate the binding affinity (KD) of the VHH only format of the […] single domain antibodies, CA-IX monomer and dimer were immobilized on SA sensor chip (GE Healthcare) and serial dilutions of the sdAbs were injected over the surface (FIG. 3A). […] The two single domain antibodies sdCA9-1-VHH and sdCA9-2-VHH were selected for further characterizations.

mouse CA-IX = mouse CA-IX (Mus musculus, UniProt Q8VHB5); test: ELISA species cross reactivity, mouse CA-IX; type: binding; details: 500 nM sdCA9-VHH
Experimental: (§1) Binding above background was measured in an ELISA assay for the binding of 500 nM of sdCA9-VHH antibodies to human CA-II, CA-IV, CA-IX, CA-XII and CA-XIV (isoform cross reactivity, upper panel), then CA-IX for mouse, human, cynomolgus monkey and dog (species cross reactivity, lower panel). (sdCA9-1-VHH ( ? ) and sdCA9-2-VHH ( ? )
(§2) Cross reactivity and CA-IX specificity. Binding specificity and species cross reactivity of two sdAb were tested in an ELISA assay using purified proteins for human, mouse, cynomolgus monkey and dog CA-IX.

human CA-IX = human CA-IX (Homo sapiens, UniProt Q16790); test: ELISA species cross reactivity, human CA-IX; type: binding; details: 500 nM sdCA9-VHH
Experimental: as §1, §2

cyno CA-IX = test: ELISA species cross reactivity, cynomolgus monkey CA-IX; type: binding; details: 500 nM sdCA9-VHH
Experimental: as §1, §2

dog CA-IX = dog CA-IX (Canis lupus familiaris, UniProt A0A8I3NCN1); test: ELISA species cross reactivity, dog CA-IX; type: binding; details: 500 nM sdCA9-VHH
Experimental: as §1, §2

[1] = target: T2, purified hCA-IX ECD dimer (Homo sapiens, UniProt Q16790); test: In vitro rhCA-IX enzyme activity inhibition (4Mu-Ac hydrolysis); type: biochemical; details: for IC50: 4Mu-Ac substrate; for inhibition of hCA-IX enzyme activity, in words: hCA-IX dimer, 4Mu-Ac hydrolysis
T2 construct: in vitro enzyme activity assay using purified hCA-IX ECD dimer
Experimental: In vitro rhCA-IX enzyme activity inhibition. In order to examine the functional consequence of the binding of the two sdCA9-VHH antibodies to hCA-IX ECD, antibodies were tested in an in vitro enzyme activity assay using purified hCA-IX ECD dimer and 4-Methylumbelliferyl acetate (4Mu-Ac) as substrate.

[2] = test system: 67NR^hCA-IX derived spheroids; test: Spheroid growth inhibition, 67NR^hCA-IX; type: cell-based, mouse; details: for spheroid growth, different concentrations: monitored for 8 days, compared with 67NR derived spheroids
Description: (§3) Spheroid growth inhibition.

[3] = test system: hCA-IX negative parental 67NR spheroids; test: Spheroid growth inhibition, parental 67NR; type: cell-based, mouse; details: hCA-IX negative cells
Description: as §3

[4] = [inhibitor] vs. normalized response - variable slope
[5] = [inhibitor] vs. normalized response - variable slope, read-out: IC50 (best fit value)

Chain of mouse CA-IX (Q8VHB5 32-437): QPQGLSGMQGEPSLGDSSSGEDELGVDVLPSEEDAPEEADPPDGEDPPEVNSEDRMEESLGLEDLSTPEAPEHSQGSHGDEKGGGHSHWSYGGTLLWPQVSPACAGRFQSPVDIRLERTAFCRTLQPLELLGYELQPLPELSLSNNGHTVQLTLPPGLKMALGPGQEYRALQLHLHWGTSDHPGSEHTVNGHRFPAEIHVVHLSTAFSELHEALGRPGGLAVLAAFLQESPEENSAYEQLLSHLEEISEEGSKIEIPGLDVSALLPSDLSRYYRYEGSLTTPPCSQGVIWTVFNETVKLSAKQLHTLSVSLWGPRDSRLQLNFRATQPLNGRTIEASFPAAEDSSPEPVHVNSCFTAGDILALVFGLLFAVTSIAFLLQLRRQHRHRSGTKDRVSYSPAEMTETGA
Chain of dog CA-IX (A0A8I3NCN1 38-461): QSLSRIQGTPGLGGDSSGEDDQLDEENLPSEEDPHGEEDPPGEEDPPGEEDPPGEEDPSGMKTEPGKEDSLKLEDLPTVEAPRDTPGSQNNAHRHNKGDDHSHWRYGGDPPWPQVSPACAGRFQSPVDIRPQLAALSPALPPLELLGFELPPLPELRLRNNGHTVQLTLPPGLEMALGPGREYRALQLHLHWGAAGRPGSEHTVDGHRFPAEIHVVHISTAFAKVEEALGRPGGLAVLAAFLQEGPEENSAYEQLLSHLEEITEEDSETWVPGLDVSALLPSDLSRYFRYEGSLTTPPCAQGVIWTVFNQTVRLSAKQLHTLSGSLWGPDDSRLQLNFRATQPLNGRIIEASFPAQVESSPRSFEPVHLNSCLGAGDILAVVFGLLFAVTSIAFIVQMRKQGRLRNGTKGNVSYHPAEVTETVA

- binding to CA-IX by SPR, in words (dimeric CA-IX): bind with high affinity
- binding to mouse CA-IX (mouse CA-IX): binds
- binding to human CA-IX (human CA-IX): binds
- binding to cyno CA-IX (cyno CA-IX): binds
- binding to dog CA-IX (dog CA-IX): binds
- HillSlope (best fit value) [1, 4]: −0.1194
- IC50 [1, 5]: 111 nM
- inhibition of hCA-IX enzyme activity, in words [1]: only partially
- IC50 ([1]; hCA-IX-ECD dimer, read-out: IC50 values): ~100 nM
B1: sdCA9-1-VHH: llama single domain antibody (VHH) binding CA-IX catalytic domain, amino acid sequence SEQ ID NO: 1 (protein)
VHH: QVQLVESGGGLVQAGGSLRLSCAASGFTFDDWAIGWFRQAPGKEREGVSCISKRHGTTHYADSVKGRFTISSDNAKNTVYLRMNGLKPEDTAVYYCAASSWGSCTVATMRDVDRYDYDYWGQGTQVTVSS
modifications: Amino acid sequence for sdCA9-1- VHH
- spheroid growth, different concentrations [2]: seemed not to be specific
- effect on parental 67NR spheroids [3]: hCA-IX non-specific phenotype

- binding to CA-IX by SPR, in words (dimeric CA-IX): bind with high affinity
- binding to human CA-IX (human CA-IX): selectively binds
- binding to cyno CA-IX (cyno CA-IX): selectively binds
- HillSlope (best fit value) [1, 4]: −0.2974
- IC50 [1, 5]: 48.4 nM
B2: sdCA9-2-VHH: llama single domain antibody (VHH) binding CA-IX catalytic domain, amino acid sequence SEQ ID NO: 5 (protein)
VHH: QVKLEESGGDLVQPGGSLRLSCAASGFTLDYYAIGWFRQAPGKEREGVSCFSSVDGSTYYADSVKGRFTISRDNAKNMVYLQMNSLKPEDTAIYYCAAELYGELGVATVQAMCRLTTPGGDYWGQGTQVTVSS
modifications: Amino acid sequence for sdCA9-2-VHH
- inhibition of hCA-IX enzyme activity, in words [1]: inhibited the hCA-IX enzyme activity to similar levels achieved by SMI U104
- growth of spheroids over time ([2]; 100 μg/mL): specifically inhibits the growth of 67NR^hCA-IX spheroids over time
- spheroid growth, different concentrations [2]: inhibited spheroid growth in a dose-dependent manner

B3: sdCA9-3-VHH: llama single domain antibody (VHH) binding CA-IX, amino acid sequence SEQ ID NO: 9 (protein)
VHH: QVQLVESGGGLVQAGDSLRLSCAASGGTFSRYGMGWFRQAPGKEREFVAAISGTGLNTYYMDSVKGRFTISRDNAENTVYLQMNSLKPEDTAVYYCARDRGGVEYDYWGQGTQVTVSS
modifications: A 118 amino acid sequence for CA9-3-VHH
- binding to CA-IX by SPR, in words (dimeric CA-IX): binds with high affinity but less so than the other two
